Measured values: paper PMC11503491

Molecular target: SARS-CoV-2 RBD (RWT), wild-type Wuhan Hu-1 receptor-binding domain, residues 319-533 (SARS-CoV-2 Wuhan Hu-1)
Experiment: BLI

koff: 0.0025 s⁻¹
B1: COVA2-15 (class 2 RBD-directed antibody) (antibody, V domains shown)
VH: QVQLLESGGGLVQPGGSLRLSCAASGFTFSSYAMSWVRQAPGKGLEWASAISGSGGSTYYADSVEGRFTISRDNSKNTLYLQMNSLRAEDTAVYYCAKDTGYCGDDCYIKLIRGGPDYWGQGTLVTVSS
VL: DIVMTQSPLSLPVTLGQPASISCRSSQSLVYSDGNTFLNWFQQRPGQSPRRLIYQVSNRDSGVPDRFSGSGSGTDFTLKISRVEAEDVGVYYCMQGTHWPRTFGQGTKLEIK
